In patent US20220073643A1 one finds EC50 data, which are given here for 21 molecules.

In the assay the target is Claudin18.2-His protein (human). Nature of the assay: indirect ELISA on coated Claudin18.2-His.

B1: 231H4G11 (antibody, V domains shown)
VH: QAYLQQSGAELVRSGASVKMSCKASGYTFTSHNIHWVKQTPGQGLEWIGYISPGNGYTNYNQKFRGKATLTADTSSSTAYMQISSLTSEDSAVYFCTRDYYGNSFAYWGQGTLVTVSA
VL: DIVMTQSPSSLTEKAGERVSMSCKSSQSLFNSGSQKNYLTWYQQKPGQPPKLLIYWASTRESGVPDRFSGSGSGTDFTLTISSVQAEDLAVYYCQNNYWFPFTFGAGTKLELK
B1: the EC50 (usually the concentration needed to bring the measured effect to its halfway point) came out at 0.0394 µg/mL.

B2: 242H12D6 (antibody, V domains shown)
VH: QAYLQQSGAELVRSGASVKMSCKASGYTFTSHNMHWVKQTPGQGLEWIGYIYPGNGGTNYNQKFKGKATLTADTSSSTAYMQINSLTSEDSAVYFCTRDYYGNSFAYWGQGTLVTVSA
VL: DIVMTQSPSSLTEKAGERVSMSCKSSQSLFNSGNQKNYLTWYQQKPGQPPKLLIYWASTRESGVPDRFTGSGSGTDFTLTISSVQAEDLAVYYCQNDYRYPFTFGAGTKLELK
In the case of B2, the EC50 was 0.0164 µg/mL.

B3: 235A10C9 (antibody, V domains shown)
VH: QAYLQQSGAELVRSGASVKMSCKASGYTFASHNMHWVKQTPGQGLEWIGYIYPGNSGTKYNQKFTGKATLTADTSSSTAYMQITSLTSEDSAVYFCARDYYGNSFAYWGQGTLVTVSA
VL: DIVMTQSPSSLTEKAGEKVSMRCKSSQSLLNSGNQKNYLTWYQQKPGQPPKLLIYWASTRESGVPDRFTGSGSGTDFTLTISSVQADDLAVYYCQNDYMFPFTFGAGTKLELK
B3 yielded a half-maximal effective concentration (EC50) of 0.0355 µg/mL.

B4: 232D7C8 (antibody, V domains shown)
VH: QAYLQQSGAELVRSGASVKMSCKASGYTFTSHNMHWVKQTPGQGLEWIGYIYPGNGGTNYNQKFKGKATLTADTSSSTAYMQISSLTSEDSAVYFCARDYFGNSFAYWGQGTLVTVSA
VL: DILMTQSPSSLTATAGEKVSMSCKSSQSLFNSGNQRNYLTWYQQRPGQPPKLLIYWASTRESGVPDRFTGSGSGTDFTLTISSVQAEDLAVYYCQNDYRYPFTFGAGTKLELK
B4: the concentration giving a half-maximal response (EC50) is 0.0305 µg/mL.

B5: 234E1F12 (antibody, V domains shown)
VH: QAYLQQSGAELVRSGASVKMSCKASGYTFTSHNMHWVKQTPRQGLEWIGYIYPGNGDTNYNQKFKGKATLTADTSSSTAYMQISSLTSEDSAVYFCTRDYYGNSFAYWGQGTLVTVSA
VL: DIVMTQSPSSLTEKAGERVSMSCKSSQSLFNSGNQKNYLTWYQQKPGQPPKLLIYWASTRESGVPDRFTGSGSGTDFTLTISSVQAEDLAVYYCQNAYWYPFTFGAGTKLELK
B5 gave a half-maximal effective concentration (EC50) of 0.105 µg/mL.

B6: 234C9G5 (antibody, V domains shown)
VH: QAYLQQSGAELVRSGASVKMSCKASGYAFTSHNMHWVKQTPGQGLEWIGYISPGNGYTNYNQKFRGKATLTADTSSSTAYMQIGSLTSEDSAVYFCTRDYYGNSFAYWGQGTLVTVSA
VL: DIVMTQSPSSLTEKAGERVSMSCKSSQSLFNSGNQKNYLTWYQQKPGQPPKLLIYWASTRESGVPDRFTGSGSGTDFTLTISSVQAEDLAVYYCQNNYWFPFTFGAGTKLELK
B6 registered a concentration for a half-maximal effect (EC50) of 0.0387 µg/mL.

B7: 240D6F5 (antibody, V domains shown)
VH: QAYLQQSGAELVRSGASVKMSCKASGYTFTSHNMHWVKQTPGQGLEWIGYIYPGNGGTNYNQKFKGKATLTADPSSSTAYMQINSLTSEDSAVYFCTRDYYGNSFAYWGQGTLVTVSA
VL: DIVMTQSPSSLTEKAGERVSMSCKSSQSLFNSGNQKNYLTWYQQKPGQPPKLLIYWASTRESGVPDRFTGSGSGTDFTLTISSVQAEDLAVYYCQNDYRYPFTFGAGTKLELK
B7: the concentration for a half-maximal effect (EC50) came out at 0.00792 µg/mL.

B8: 233D5E5 (antibody, V domains shown)
VH: QAYLQQSGAELVRSGASVKMSCKASGYTFTSHNMHWVKQTPRQGLEWIGYIYPGNGDTNYNQKFKGKATLTADTSSSTAYMQISSLTSEDSAVYFCTRDYYGNSFAYWGQGTLVTVSA
VL: DIVMTQSPSSLTEKAGERVSMSCKSSQSLFNSGNQKNYLTWYQQKPGQPPKLLIYWASTRESGVPDRFTGSGSGTDFTLTISSVQAEDLAVYYCQNAYWYPFTFGAGTKLELK
The molecule B8 returned a 50% effective concentration (EC50) of 0.0943 µg/mL.

B9: 232C5E3 (antibody, V domains shown)
VH: QAYLQQSGAELVRSGASVKMSCKASGYTFTSHNIHWIKQTPGKGLEWIGYIYPGNGGTNYNQKFKAKATLTADTSSSTAYMQISSLTSEDSAVYFCARDYYGNSFAYWGQGTLVTVSA
VL: DIMMTQSPSSLTETAGEKVSMSCKSSQSLLNSGNQKNYLTWYQQKPGQPPKLLIYWASTRESGVPDRFSGSGSGTDFTLTISSVQAEDLAVYYCQNGYRFPFTFGAGTKLELK
The molecule B9 registered an EC50 of 0.0259 µg/mL.

B10: 222B6G5 (antibody, V domains shown)
VH: QTYLQQSGAELVRSGASVKMSCKASGYTFTSYNIHWVKQTPGQGLEWIGYISPGNGGTYYNLKFKDKATLTTATSSSTAYMQISSLTSEDSAVYFCATGRGFAYWGQGTLVTVSA
VL: DIVMTQSPSSLTVTPGEKVTMSCKSSQSLFNSGNQKNYLIWYQQKPGQPPKLLIYRASTRDSGVPDRFTGSGSGTDFTLTISNVQAEDLAVYYCQNDYSYPLTFGAGTKLELK
In turn, B10 yielded an EC50 of 0.0201 µg/mL. The EC50 values of the last two molecules are within 1.5-fold of each other.

B11: 185F2G12 (antibody, V domains shown)
VH: QAYLQQSGAELVRSGASVKMSCKASGYTFTSYNMHWVRQTPGQGLEWIGYIYPGNGGTNYSQKFKGKASLTADTSSTTAYMQISSLTSEDSAVYFCATGRGFAYWGQGTLVTVSA
VL: DIVMTQSPSSLTVTAGEKVTLSCKSSQSLFNTGNQKNYLTWYQQKPGQPPKLLIFRASTRESGVPDRFTGSGFGTDFTLTISSVQAEDLAVYYCQNDFSYPLTFGAGTKLELK
For B11, the EC50 was 0.0193 µg/mL.

B12: 226A4B5 (antibody, V domains shown)
VH: QAYLQQSGAELVRSGASVRMSCKASGFTFTSYNIHWVKQTPGQGLEWIGYIYPGSGGSNYNQKFMGKATLTADTSSSTVYMQISSLTSEDSAVYFCATGRGFAYWGQGTLVTVSA
VL: DIVMTQSPSSLTVTAGEKVTMSCKSSQSLFNSGNQKNYLTWYQQKPGQPPKLLIYRASTRESGVPDRFTGSGSGTDFTLTISSVQAEDLAVYYCQNDYSYPLTFGTGTKLELK
For B12, the half-maximal effective concentration (EC50) amounted to 0.00813 µg/mL.

B13: 234A10F7 (antibody, V domains shown)
VH: QVQLQQSGAELVKPGASVKLSCKASGYTFTSFGINWLRQRPEQGLEWIGWIFPGDGNSKYNENFKGKATLTTDKSSSTAYMQLTRLTSEDSAVYFCARFYYGNSFAYWGQGTLVTVSA
VL: DIVMTQSPSSLTVTTGQKVTMSCKSSQSLLNSGNQKNYLTWYQQKPGQPPKLLIYWAATRESGVPDRFTGSGSGTDFTLTISSVQAEDLAVYYCQNDYFYPFTFGAGTKLELK
In turn, B13 came in with an EC50 of 0.0268 µg/mL.

B14: 182D10F1 (antibody, V domains shown)
VH: QAYLQQSGAELVRSGASVKMSCKASGYTFSSYNMHWVKQTPGQGLEWIGYIYPGNGGTNYNQKFKGKATLTADTSSSTAYMQISSLTSEDSAVYFCLTGRGFTYWGQGTLVTVSA
VL: DIVMTQSPSSLTVTAGEKVTMNCKSSQSLFNSGNQKNYLTWYQQKPGQPPKLLIYRASTRESGVPDRFTGSGSGTDFTLTISSVQAEDLAVYYCQNDYSYPLTFGVGTKLELK
Regarding B14, the EC50 stood at 0.0236 µg/mL.

B15: 241H10A1 (antibody, V domains shown)
VH: QVQLQQSGAELVKPGASVKLSCKASGYTFTSFGINWLRQRPEQGLEWIGWIFPGDGNSKYNENFKGKATLTTDKSSSTAYMQVTRLTSEDSAVYFCARFYYGNSFANWGQGTLVTVSA
VL: DIVMTQSPSSLTVTAGEKVTMSCKSSQSLLNSGNQKNYLTWYQQKPGQPPKLLIYWAATRESGVPDRFTGSGSGTDFTLTISSVQAEDLAVYYCQNDYFYPFTFGGGTKLELK
B15: the EC50 was found to be 0.0221 µg/mL.

B16: 234B9D4 (antibody, V domains shown)
VH: EIQLQQSGPDLMKPGSSVKISCTASGYSFTSYYIHWVKQSHGKTLEWIGYIDPFNGGTRYNQKFEGKAALTVDKSSTTAYMHLTSLTSDDSAVYYCASLRFFTYWGQGTLVTVSA
VL: DIVMTQSPSSLTVTAGEKVTMTCKSSQSLLNSGNQENYLTWYQQKPGQPPKLLISRASTRQSGVPDRFTGSGSGTDFTLTISSVQAEDLAVYYCQNDYSYPLTFGAGTKLELK
B16 came in with an EC50 of 0.0405 µg/mL. Compared with the last molecule, the EC50 is about 1.8-fold higher.

B17: 231C11E9 (antibody, V domains shown)
VH: EVMLVESGGGLVKPGGSLKLSCAASGFTFNNYVMCWVRQTPEKRLEWVATISSGNFYTYYPDSVKGRFTISRDNAKNTLYLQMSSLRSEDTAIYYCASLGRGNALDNWGQGTSVTVSS
VL: DIVMTQSPASLTVTAKEKVTMSCRSSQSLLNSGNQKNYLTWYQQKPGQPPKLLIYWASTRESGVPDRFTGSGSGTDFTLTISSVQAEDLAVYYCQNDYSYPFTFGSGTKLEIK
Regarding B17, the EC50 amounted to 0.0413 µg/mL.

B18: 240A8E7 (antibody, V domains shown)
VH: QAYLQQSGAELVRSGASVKMSCKASGYTFTNYNIHWVKQTPGQGLEWIGYIYPGNGDNYYNQKFKGKATLTADTSSSTAYMQISSLTSEDSAVYFCARDYYGNSFAYWGQGTLVTVSA
VL: DVVMTQSPSSLTVTAGEKVTMNCKSSQSLLNSGNQKNYLTWYQQKPGQPPKMLIYWASTRESGVPDRFTGSGSGTDFTLTISSVQAEDLAIYYCQNDYYYPFTFGAGTKLELK
On to B18, for which the half-maximal effective concentration (EC50) was found to be 0.0145 µg/mL. Against the preceding molecule, the EC50 is about 2.8-fold lower.

B19: 242F5H2 (antibody, V domains shown)
VH: EVMLVESGGGLVKPGGSLKLSCAASGFTFSSYTVSWVRQTPEKRLEWVATSIVGSTYTYFPDSVKGRFTISRDFAKNTLFLQMSSLRSEDTAMYYCSRLGRGNAMDYWGQGTSVSVSS
VL: DIVMTQSPSSLTVTAGEKVTLNCRSSQSLLNSGNQKNYLTWYQQKPGQPPKLLIYWASTRESGVPDRFTGSGSGTDFTLTISSVQADDLAVYYCQNGYSYPFTFGSGTKLEIK
The molecule B19 yielded an EC50 of 0.0193 µg/mL.

B20: 232F1E4 (antibody, V domains shown)
VH: QVQLKESGPGLVAPSQSLSITCTVSGFALTTYGVSWVRQPPGKGLEWLGVIWGDGSTHYHSALISRLSIRKDNSKSQVFLKLNSLQTDDTATYYCAKPGRGNAMDYWGQGTSVTVSS
VL: DIVMSQSPSSLTVTAGEKVTMSCKSSQSLLNSGNQKNYLTWYQQKPGQSPKLLIYWASTRESGVPDRFTGSGSGTDFTLTISSMQAEDLAVYYCQNDYIYPLTFGAGTMLELK
B20 yielded a 50% effective concentration (EC50) of 0.0509 µg/mL.

B21: 186F7E10 (antibody, V domains shown)
VH: EVMLVESGGGLVKPGGSLKLSCAASRFTLNSYAMSWIRQTPEKKLEWVATITSGVSHTYYFDSVKGRFTISRDTAKNTLNLQMNSLRSEDTAVYYCARLYYGNSLDYWGQGTSVTVSS
VL: DIVMTQSPSSLTVTAGEKVTVSCKSSQSLLNSGNQKNYLTWYQQKPGQPPKLLIYWASTRESGVPDRFTGSGSGTDFTLTISSVQSEDLAVYYCQNNYIYPLTFGAGTTLELK
Take B21: the EC50 was determined as 0.0109 µg/mL.
